Patent US5702914, “Use of reporter genes for retinoid receptor screening assays having novel retinoid-associated response elements” (The Salk Institute for Biological Studies)

B1: HOXB1 DR-2B (dsDNA)
DNA 1: CGGGCCTGACCTTTTTACCTCGAAG
DNA 2: CTTCGAGGTAAAAAGGTCAGGCCCG
B2: HOXB1 DR-2A (dsDNA)
DNA 1: TGAACTCTTGCCCT
DNA 2: AGGGCAAGAGTTCA

Experiments:
[1] = molecular target: T1, RAR alpha:RXR alpha heterodimer (Homo sapiens, UniProt P10276;P19793 P10276:1-462,P19793:1-462); assay: EMSA; less intense than on DR-5; 74-fold RA induction of TK.Luc(DR2B)2 with both receptors in NT2/D1 cells; conditions: tags: rabbit reticulocyte lysate (Promega); from pCMX-hRARalpha and pCMX-hRXRalpha; label: 32P
T1 sequence (P10276 whole entry, chain 1 of 2): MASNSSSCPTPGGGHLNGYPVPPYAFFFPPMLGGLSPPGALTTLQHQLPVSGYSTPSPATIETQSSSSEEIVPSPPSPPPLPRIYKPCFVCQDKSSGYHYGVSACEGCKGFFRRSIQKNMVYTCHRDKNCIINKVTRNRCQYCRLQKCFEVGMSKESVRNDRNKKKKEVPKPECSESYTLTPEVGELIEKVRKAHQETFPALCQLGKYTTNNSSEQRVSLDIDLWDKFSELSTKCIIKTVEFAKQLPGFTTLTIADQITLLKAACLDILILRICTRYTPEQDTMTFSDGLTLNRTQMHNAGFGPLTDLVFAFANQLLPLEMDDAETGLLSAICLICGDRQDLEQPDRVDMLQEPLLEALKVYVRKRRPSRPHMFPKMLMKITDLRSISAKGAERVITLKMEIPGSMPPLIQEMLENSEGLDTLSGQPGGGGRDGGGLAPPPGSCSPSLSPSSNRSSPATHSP
T1 sequence (P19793 whole entry, chain 2 of 2): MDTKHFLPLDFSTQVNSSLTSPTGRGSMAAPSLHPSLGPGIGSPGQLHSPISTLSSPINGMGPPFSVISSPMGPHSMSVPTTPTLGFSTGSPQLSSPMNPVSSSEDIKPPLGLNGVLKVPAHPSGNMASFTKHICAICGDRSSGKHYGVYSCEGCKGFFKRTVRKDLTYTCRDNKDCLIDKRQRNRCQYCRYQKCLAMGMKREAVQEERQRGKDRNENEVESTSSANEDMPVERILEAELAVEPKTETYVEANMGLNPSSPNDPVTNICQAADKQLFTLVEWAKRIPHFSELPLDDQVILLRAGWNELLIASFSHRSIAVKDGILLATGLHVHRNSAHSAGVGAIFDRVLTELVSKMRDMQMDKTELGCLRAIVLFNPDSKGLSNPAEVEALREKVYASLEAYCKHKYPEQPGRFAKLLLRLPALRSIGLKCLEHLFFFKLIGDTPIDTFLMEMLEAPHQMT
Experimental: (§1) Aliquots of mRNA were incubated with rabbit reticulocyte lysate (Promega) for in vitro translation. For gel retardation assay, 5 µl of in vitro translated proteins were preincubated in binding buffer (10 mM Tris[pH8.0], 40 mM KCl, 0.05% Nonidet P-40, 6% glycerol, 1 mM DTT, 5 µg/ml poly[dI.dC]) on ice for 15 minutes. For competition assays, 20 fold molar excess of competitor oligonucleotides was mixed at this step. Oligonucleotides containing DR-5 (RARβ2RARE), HOXB DR-2A (nucleotides 30–43 of SEQ ID NO:1) and HOXB DR-2B (nucleotides 41–54 of SEQ ID NO:2) were used as competitors and probes. Subsequently, ^32P-labelled oligonucleotide probes were added to the reaction mixtures and incubated on ice for 15 minutes. The same oligonucleotides used for the construction of luciferase plasmids were used. Reaction mixtures were resolved by 5% polyacrylamide gel electrophoresis in 0.5×TBE. The dried gels were autoradiographed at −70° C.
The ability of RAR and RXR to form either homo- or heterodimers on the HOXB1 DR-2A and DR-2B response elements was examined using gel retardation assays. The expression plasmids pCMX-hRARα and pCMX-hRXRα were linearized with NheI restriction enzyme. Subsequently, capped mRNA was synthesized in vitro using T7 RNA polymerase (Stratagene) according to the manufacturer's instructions. […]

[2] = molecular target: T1, RAR alpha:RXR alpha heterodimer; assay: EMSA; less intense than on DR-5; conditions: tags: rabbit reticulocyte lysate (Promega); from pCMX-hRARalpha and pCMX-hRXRalpha; label: 32P
Experimental: as §1, with “Gel retardation assays were carried out according to Kliewer et al. (1992, supra). The plasmids pCMX-hRARα and pCMX-hRXRα (Kliewer et al., 1992, supra) were linearlized and capped mRNA was synthesized in vitro using T7 RNA polymerase (Stratagene) according to manufacturer's instructions. Aliquots” for “Aliquots”
The ability of RAR and RXR to form either homo- or heterodimers on the HOXB1 DR-2A and DR-2B response elements was examined using gel retardation assays. […]

Row | Binder | binding result [1] | binding result [2]
1 | B1 | binds | 
2 | B2 |  | binds
